Consider one molecule from patent US20250179192A1.

The target in the assay is KDR1-3 domains (UniProt P35968). Kind of assay: Octet BLI, KDR1-3 domains on biosensor, scFv in solution.
Chain of KDR1-3 domains (P35968 20-327 limits assumed): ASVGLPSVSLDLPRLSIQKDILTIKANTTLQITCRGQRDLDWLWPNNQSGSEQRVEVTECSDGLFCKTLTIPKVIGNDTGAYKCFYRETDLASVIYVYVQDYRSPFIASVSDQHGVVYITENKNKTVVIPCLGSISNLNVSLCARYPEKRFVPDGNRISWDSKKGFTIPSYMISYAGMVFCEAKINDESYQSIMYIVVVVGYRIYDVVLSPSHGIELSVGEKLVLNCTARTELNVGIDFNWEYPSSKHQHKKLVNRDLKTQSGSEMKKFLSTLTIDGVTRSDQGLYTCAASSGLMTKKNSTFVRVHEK

B1: 6A6 (scFv form, off-rate screening) (scFv, from another filing, V domains shown)
VH: QMQLVQSGAEVKKPGASVKLSCKASGYTFSSYWMHWVRQAPGQRLEWMGEINPGNGHTNYNEKFKSRVTITVDKSASTAYMELSSLRSEDTAVYYCAKIWGPSLTSPFDYWGQGTLVTVSS
VL: SNFMLTQPPSVSVSPGKTARITCRGDNLGDVNVHWYQQRPGQAPVLVMYYDADRPSGIPERFSGSNSGNTATLTISGVEAGDEADYYCQVWDRTSEYVFGTGTKVTVLG
The molecule B1 returned a koff of 0.000266 s⁻¹.
